The values below come from US20210147547A1.

For this assay, the target named is PD-L1 (UniProt Q9NZQ7). In words: in vitro Biacore assay (SPR); format not stated. Background: SPR reads the build-up and loss of mass on a sensor chip optically.
Sequence of UniProt Q9NZQ7 (Q9NZQ7 19-238 limits assumed): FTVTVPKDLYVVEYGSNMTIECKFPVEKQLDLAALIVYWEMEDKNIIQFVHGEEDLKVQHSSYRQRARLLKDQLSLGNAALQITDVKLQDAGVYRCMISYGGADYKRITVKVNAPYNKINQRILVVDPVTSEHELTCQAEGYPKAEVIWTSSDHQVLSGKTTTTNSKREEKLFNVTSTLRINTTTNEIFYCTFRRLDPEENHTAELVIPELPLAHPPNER

The substance FAZ053 (antibody) came in with a Kd of 0.14 nM.

Broadly, the Kd is the equilibrium constant for the complex coming apart. Higher therefore signals weaker binding.
